Results published in paper PMC4128677, “Somatostatin Analogues for Receptor Targeted Photodynamic Therapy” (PLoS ONE, 2014).
Read-outs that look alike come from different tables or passages of the source. Positions of bridges follow the written chain, without caps; N, C: chain ends. Non-standard residues stand in square brackets, D forms with d. Residues, ends and D or L forms follow the SMILES beside them. *: point of attachment. X1 = C=Cc1c(C)c2cc3nc(c(CC(=O)O)c4[nH]c(cc5nc(cc1[nH]2)C(C)=C5CC)c(C)c4C(=O)O)[C@@H](CCC(=O)*)[C@@H]3C

Legend:
[1] = pH titration of fluorescence/absorbance (pKa); assay type: physicochemical
Procedure: pH measurements. The pH titration of PBS was performed with HNO3 and NaOH over pH 4.0-8.5. The final concentration of Ce6 and Ce6-conjugates in solution was 0.8 µM. The pH was measured by Sentron pH meter (Sentron Europe, NL) and the absorption and fluorescence emission (λexc = 408 nm) profiles of solutions were recorded. The inflection point of titration curves (pKa) were evaluated as reported. Briefly, the results of fluorescence titrations are presented in terms of a plot of fluorescence intensity as a function of pH with the constant concentration of the compound used throughout measurements. However, variations of fluorescence intensity are due to at least two contributions: the changes of molar extinction coefficient (differed absorbed intensity) and the changes of quantum efficiency with pH. To eliminate the influence of the molar extinction coefficient variations, the ratio of fluorescence intensity at the peak position to the absorbance at the excitation wavelength was plotted, followed by sigmoidal function fitting procedure (Figures S2-S4).

[2] = Singlet oxygen quantum yield (SOSGR photooxidation); assay type: physicochemical; settings: PBS pH = 7.4; SOSGR 1 µM; relative to ΦΔ = 0.64 of Ce6; in duplicate
Procedure: Singlet Oxygen Quantum Yield Measurements. Photooxidation of Singlet Oxygen Sensor Green Reagent (SOSGR) (Molecular Probes, NL) was used to determine the singlet oxygen formation by Ce6 and Ce6-conjugates. We used SOSGR because of its high selectivity for singlet oxygen and low sensitivity to hydroxyl radicals/superoxides. Stock solution of SOSGR (5 mM) was prepared in methanol. The final concentration of SOSGR within the photosensitizer solution in PBS pH 7.4 was 1 µM. The irradiation was performed the same as for photobleaching measurements described above. The singlet oxygen quantum yields (Φ?) of conjugates in PBS were determined in duplicate by a relative method with a Φ? = 0.64 of Ce6 in the PBS at pH 7.4 as reference.

[3] = 1-Octanol/PBS partition coefficient; assay type: physicochemical
Procedure: Partition coefficient. Stock solutions of Ce6 and conjugates (0.6 mM) were prepared in DMSO. Lipophilicity was characterized by their partition coefficient Poct/buffer = Coct/Cbuffer between two solvents 1-octanol (oct) and PBS, pH = 7.4 (buffer). Measurements were carried out in duplicates as described by Cunderlikova et al.

K562 WT cells = assay: In vitro PDT phototoxicity, K562 WT cells; assay type: cell-based, human; settings: 5 J.cm^−2, 652 nm; with or without Octreotide co-treatment
Procedure: (§1) In vitro PDT experiments were performed to determine the phototoxicity of free Ce6 and conjugates. K562 sst2+ and WT cells were seeded in L-polylysine-coated (10 µg/ml) 96-well (8×10^3/well) and 24-well (4×10^4/well) and incubated overnight in 5% CO2 at 37°C. […] After incubation, cells were washed. Fresh serum-free medium was added, and cells were illuminated with 652 nm to a dose from 0.5 to 5 J cm^−2 at 5 mW.cm^−2. Thereafter, serum-containing medium was added and cells were allowed to grow for an additional 3 days in 5% FCS medium. Toxicity was determined by: measurement of DNA contents using the bisbenzimide fluorescent dye (Hoechst 33258, Boehring Diagnostics, CA, USA) and measurement of mitochondrial dehydrogenase cleavage of WST-1 reagent (Roche Diagnostics, Germany), [39]. Experiments were done in triplicates.

K562 sst2+ cells [4] = assay: In vitro PDT phototoxicity, K562 sst2+ cells; assay type: cell-based, human; settings: K562 sst2+; 5 J.cm^−2, 652 nm
Procedure: as §1

sst2 = molecular target: T1, sst2 (Homo sapiens, UniProt P30874); assay: Displacement of [125I]-SS14 binding, membrane preparations of K562 sst2+ cells
T1 construct: expressed in transfected cells; host or cells: K562 (human erythroleukemic) cells stably transfected with LZRS-lyt2-IRES-sst2; membrane preparations
T1 sequence (P30874 whole entry): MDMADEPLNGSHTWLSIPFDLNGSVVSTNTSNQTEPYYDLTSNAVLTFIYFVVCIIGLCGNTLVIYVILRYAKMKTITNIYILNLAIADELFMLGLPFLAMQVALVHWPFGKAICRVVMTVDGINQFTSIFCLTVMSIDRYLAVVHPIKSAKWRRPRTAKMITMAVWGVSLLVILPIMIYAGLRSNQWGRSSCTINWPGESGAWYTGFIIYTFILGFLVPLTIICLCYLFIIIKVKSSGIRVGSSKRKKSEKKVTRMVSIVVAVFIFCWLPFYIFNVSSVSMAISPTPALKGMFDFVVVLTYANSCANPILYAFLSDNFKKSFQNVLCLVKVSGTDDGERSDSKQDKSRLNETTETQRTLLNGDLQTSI
Procedure: Copy DNA of the human sst2 receptor was merged into a LZRS-lyt2-IRES plasmid background (lyt2 being the mouse CD8 receptor). The calcium precipitation method was used to transfect non-adherent K562 cells with the LZRS-lyt2-IRES-sst2. Expression of lyt2 was evaluated by means of FACS analysis using FITC labeled anti-mouse CD8 antibody (BD PharMingen, Netherlands), 1∶160 diluted in FACS-buffer. Clones were grown form Lyt2 positive isolated cells. Vital clones were cultured and tested in time for stability of sst2 receptor expression, by means of both FACS analysis (using FITC labeled octreotate 200 nM) as well as sst2 mRNA expression by RT-PCR as previously described. […] K562 cells were grown in RPMI 1640 containing L-glutamine, 10% heat-inactivated FCS, 50 µg/ml penicillin and 50 µg/ml streptomycin, and were maintained in an incubator at 37°C in an humidified atmosphere of 5% CO2.
The binding potency of Ce6-conjugates to sst2 on K562 sst2 ^+ cells was evaluated on cell membrane preparations.

[5] = Steady-state absorption and fluorescence in PBS; assay type: physicochemical; settings: PBS pH = 7.4
Procedure: Steady-State Fluorescence and Absorption Measurements. The fluorescence quantum yields (ΦF) of Ce6 and conjugates in PBS pH 7.4 were determined by a relative method. Ce6 in the buffer at pH 7.4 with the quantum yield of 0.18 [24,32,33] was used as a reference.
The absorption profile of Ce6 and conjugate in PBS of concentration (0.06–1µM) was recorded in Shimadzu spectrophotometer (UV-2101 PC, Duisburg, Germany).
The fluorescence emission of photosensitizers was recorded in a Perkin-Elmer spectrofluorimeter (LS 50B, Massachussetts, USA). Light at 408 nm was used for excitation. The concentration range of compounds matched to the O.D. up to 0.1.

[6] = Photobleaching under 652 nm irradiation in PBS; assay type: physicochemical
Procedure: Photobleaching measurements. The loss of photosensitizer absorbance and fluorescence during irradiation was used to monitor photobleaching. Solutions of Ce6 and Ce6-conjugates were prepared in PBS pH = 7.4. The concentration of photosensitizers were adjusted so that all absorb the same number of photons at irradiated region (O.D. = 0.014 at the λirr. = 652 nm (Biolitec pharma, UK). Data was acquired in quartz cuvettes in aerobic conditions using stirring under uniform, measured irradiation at 5 mWcm^-2. At intervals, the cuvette was removed from magnetic stirrer and absorption and fluorescence emission spectrum (λexc = 405 nm) acquired. The initial absorption bleaching rate constants (kblA) for Ce6 and conjugates were evaluated as reported.

K562 sst2+ cells [7] = assay: Cellular uptake in K562 sst2+ and WT cells; assay type: cell-based, human; settings: 1 µM; serum-free and 5% FCS medium; fluorescence of lysate, λexc = 405 nm
Procedure: Stock solutions of Ce6 and Ce6-conjugates (1 mM) were dissolved in 80% DMSO and were stored in the dark at −20°C. Before experiments, the solutions were diluted to a concentration of 0.1 mM in 20% DMSO. K562 sst2+ or WT (3×10^5) in 1 ml RPMI 1640 serum-free or supplemented with 5% FCS were incubated with Ce6 or with conjugate (1 µM) for 15 min to 24 h in the dark at 37°C. After incubation, the cells were centrifuged, cell pellet dissolved in 2% SDS and fluorescence emission spectra (λexc = 405 nm) recorded. Photosensitizer concentrations were calculated in triplicate according to a calibration curve generated by mixing a known concentration of photosensitizer with a lysated control samples.

Row | Compound | pKa, inflection point of pH titration curve ([1]; Fmax/A(λexc) versus pH, sigmoidal fit, PBS titrated with HNO3 and NaOH over pH 4.0-8.5, 0.8 µM, λexc = 408 nm) | ΦΔ, singlet oxygen quantum yield [2] | fold higher accumulation in 1-octanol than in buffer ([3]; 1-octanol / PBS pH 7.4) [×] | logD ([3]; 1-octanol / PBS pH = 7.4, Poct/buffer = Coct/Cbuffer, stock 0.6 mM in DMSO, duplicates, read-out: LogP, logarithm of partition coefficient) | PDT toxicity in K562 WT cells (K562 WT cells) | effect of Octreotide co-treatment (10^−5 M) on phototoxicity (K562 sst2+ cells [4]) | fold higher potency than conjugate 1 (sst2; ratio of IC50 values, [125I]-SS14 displacement) [×] | full width at half maximum of the Q(0,0) absorption band [5] [nm] | full width at half maximum of the Soret absorption band [5] [nm] | maximum of fluorescence band [5] [nm] | maximum of the Q(0,0) absorption band [5] [nm] | maximum of the Soret absorption band [5] [nm] | ΦF, fluorescence quantum yield ([5]; relative method, Ce6 (0.18) as reference, excitation 408 nm) | kblA, rate constant of initial absorption bleaching ([6]; PBS pH = 7.4, 652 nm irradiation at 5 mWcm^-2, O.D. = 0.014 at 652 nm, aerobic, stirring) | uptake in sst2+ cells compared to WT cells (factor) (K562 sst2+ cells [7]) | pKa, inflection point of pH titration curve [1] | logD ([3]; pH 7.4) | IC50 (sst2; membrane preparations of K562 sst2+ cells, displacement by increasing concentrations of unlabeled compound, read-out: IC50, competition with specific binding of [125I]-SS14) [µM] | photostability [6]
1 | C=Cc1c(C)c2cc3nc(c(CC(=O)O)c4[nH]c(cc5nc(cc1[nH]2)C(C)=C5CC)c(C)c4C(=O)O)[C@@H](CCC(=O)N[C@H](Cc1ccccc1)C(=O)N[C@H]1CSSC[C@@H](C(=O)N[C@H](C(=O)N[C@@H](CCCCN)C(=O)N[C@@H](CCCCN)C(=O)N[C@@H](CCCCN)C(=O)N[C@H](Cc2ccccc2)C(=O)N[C@H]2CSSC[C@@H](C(=O)N[C@H](C(=O)O)[C@@H](C)O)NC(=O)[C@H]([C@@H](C)O)NC(=O)[C@H](CCCCN)NC(=O)[C@@H](Cc4c[nH]c5ccccc45)NC(=O)[C@H](Cc4ccc(O)cc4)NC2=O)[C@@H](C)O)NC(=O)[C@H]([C@@H](C)O)NC(=O)[C@H](CCCCN)NC(=O)[C@@H](Cc2c[nH]c4ccccc24)NC(=O)[C@H](Cc2ccc(O)cc2)NC1=O)[C@@H]3C [Conjugate 2, Ce6-[Tyr3]-octreotate-K3-[Tyr3]-octreotate] (X1-[dF]CY[dW]KTCTKKK[dF]CY[dW]KTCT-OH; disulfide 2-7, 13-18) | 6.28±0.035 | 0.59±0.03 | > 600 | 2.82 ± 0.34 | comparable with the PDT activity on K562 sst2+ cells | not inhibited by Octreotide co-treatment | ~5 | 26 | 42 | 665 | 661 | 405 | 0.03 | 22.70 x 10^−2 J^−1 cm^2 | no difference | – | – | – | –
2 | C=Cc1c(C)c2cc3nc(c(CC(=O)O)c4[nH]c(cc5nc(cc1[nH]2)C(C)=C5CC)c(C)c4C(=O)O)[C@@H](CCC(=O)N[C@@H](CCCCN)C(=O)N[C@@H](CCCCN)C(=O)N[C@@H](CCCCN)C(=O)N[C@H](Cc1ccccc1)C(=O)N[C@H]1CSSC[C@@H](C(=O)N[C@H](C(=O)O)[C@@H](C)O)NC(=O)[C@H]([C@@H](C)O)NC(=O)[C@H](CCCCN)NC(=O)[C@@H](Cc2c[nH]c4ccccc24)NC(=O)[C@H](Cc2ccc(O)cc2)NC1=O)[C@@H]3C [Conjugate 1, Ce6-K3-[Tyr3]-octreotate] (X1-KKK[dF]CY[dW]KTCT-OH; disulfide 5-10) | – | – | – | – | – | – | – | – | – | – | – | – | – | – | – | 5.38±0.0615 | 0.679 ± 0.04 | 0.068 | higher photostability
